Four substances from US20130315910A1 can be followed below.

Holding throughout (assay): SPR
(In general: SPR reads the build-up and loss of mass on a sensor chip optically.)

In assay [1] the target is human FcγRI receptor protein (R&D Systems) (human) (UniProt P12314).
Assay [2] has as its target human FcγRIIa (131R), His- and GST-tagged (human) (UniProt P12318).
Assay [3] deals with human FcγRIIb receptor protein (R&D Systems) (human) (UniProt P31994).
Assay [4] deals with human FcγRIIa (131H), His- and GST-tagged (human) (UniProt P12318).
Chain of human FcγRIIa (131H), His- and GST-tagged (human) (P12318 34-217): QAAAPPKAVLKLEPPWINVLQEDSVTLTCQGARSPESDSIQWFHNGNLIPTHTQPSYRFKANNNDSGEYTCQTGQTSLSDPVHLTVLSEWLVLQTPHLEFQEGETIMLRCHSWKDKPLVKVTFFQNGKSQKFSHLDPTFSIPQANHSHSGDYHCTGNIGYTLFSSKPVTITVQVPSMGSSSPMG
A further assay addresses T1, mFcγRIV.
T1 sequence: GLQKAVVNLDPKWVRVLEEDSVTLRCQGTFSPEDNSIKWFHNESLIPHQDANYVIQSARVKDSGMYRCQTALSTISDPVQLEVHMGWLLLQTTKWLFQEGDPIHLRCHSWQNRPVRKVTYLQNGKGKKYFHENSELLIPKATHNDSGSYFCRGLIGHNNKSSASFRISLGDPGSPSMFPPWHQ

Assay [5] has as its target cynoFcγRIIb (Macaca fascicularis).
The next assay addresses mFcγRIIb (Mus musculus) (UniProt P08101).

One may read the Kd as the equilibrium constant for the complex coming apart. Low values mean a tighter complex, high ones a looser complex.

Chain of human FcγRI receptor protein (R&D Systems) (human) (P12314 16-288 limits assumed): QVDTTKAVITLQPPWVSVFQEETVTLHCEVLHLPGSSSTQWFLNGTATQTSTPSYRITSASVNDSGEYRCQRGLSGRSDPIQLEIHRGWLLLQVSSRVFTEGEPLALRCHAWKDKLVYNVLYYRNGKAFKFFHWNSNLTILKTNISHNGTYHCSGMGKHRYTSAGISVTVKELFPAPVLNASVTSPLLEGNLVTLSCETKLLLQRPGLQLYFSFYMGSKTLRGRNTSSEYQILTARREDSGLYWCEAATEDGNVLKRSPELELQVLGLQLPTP
Chain of human FcγRIIb receptor protein (R&D Systems) (human) (P31994 46-217 limits assumed): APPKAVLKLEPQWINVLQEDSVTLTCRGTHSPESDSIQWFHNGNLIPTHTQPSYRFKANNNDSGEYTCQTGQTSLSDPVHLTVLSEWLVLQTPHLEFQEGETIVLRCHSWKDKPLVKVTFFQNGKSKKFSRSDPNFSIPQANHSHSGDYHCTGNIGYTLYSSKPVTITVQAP
Chain of human FcγRIIa (131R), His- and GST-tagged (human) (P12318 34-217 H167R): as the sequence (P12318 34-217) above, with H134R counted along it
Chain of mFcγRIIb (Mus musculus) (P08101 30-210): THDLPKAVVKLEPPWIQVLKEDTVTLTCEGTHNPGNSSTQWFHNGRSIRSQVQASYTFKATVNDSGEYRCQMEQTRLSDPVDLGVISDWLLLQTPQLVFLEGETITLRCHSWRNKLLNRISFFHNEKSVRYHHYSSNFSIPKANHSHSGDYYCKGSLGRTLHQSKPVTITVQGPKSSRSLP

Take “anti-CD19 antibody IgG1/2 ELLGG S267E/L328F”: the Fold vs WT IgG1 in assay [1] turned out to be 2.35 fold; in assay [2], 269 fold; in assay [3], 221 fold; in assay [4] it was 0.993 fold. Also, the Kd in assay [1] was determined as 0.14 nM; in assay [2], 3.19 nM; in assay [3], 6.63 nM; in assay [4], 651 nM.
In turn, V266M (antibody) came in with a Fold vs WT IgG1 (off-rate) in the assay with mFcγRIV of 1.23 fold.
In the case of S267D/A327D (antibody), the Fold vs WT IgG1 (off-rate) (in assay [5]; in the assay with mFcγRIIb (Mus musculus)) was 0 fold each time.
The substance S267E/L328Y (antibody) registered a Fold vs WT IgG1 (Kd) with mFcγRIV of 0.026 fold.
